Experimental data published in the supplement of paper PMC11246515.
± gives the standard deviation of the averaged measurements.

Assay: total protein half-life in vivo (active degradation + dilution); higher = more stable protein
[1] = E. coli NCM3722 delta-clpP delta-lon delta-hslV, growth: N-lim chemostat, doubling time 6 h
[2] = E. coli NCM3722 delta-clpP, growth: N-lim chemostat, doubling time 6 h
[3] = wild type E. coli NCM3722, growth: N-lim chemostat, doubling time 6 h
[4] = E. coli NCM3722 delta-hslV, growth: N-lim chemostat, doubling time 6 h
[5] = E. coli NCM3722 delta-lon, growth: N-lim chemostat, doubling time 6 h
[6] = E. coli NCM3722 delta-smpB, growth: N-lim chemostat, doubling time 6 h
[7] = wild type E. coli NCM3722, growth: C-lim chemostat, doubling time 3 h
[8] = wild type E. coli NCM3722, growth: C-lim chemostat, doubling time 6 h
[9] = wild type E. coli NCM3722, growth: C-lim chemostat, doubling time 12 h
[10] = wild type E. coli NCM3722, growth: N-lim chemostat, doubling time 12 h
[11] = wild type E. coli NCM3722, growth: P-lim chemostat, doubling time 6 h
[12] = wild type E. coli NCM3722, growth: P-lim chemostat, doubling time 12 h

Row | Sequence | total protein half-life in vivo [1] [h] | total protein half-life in vivo [2] [h] | total protein half-life in vivo [3] [h] | total protein half-life in vivo [4] [h] | total protein half-life in vivo [5] [h] | total protein half-life in vivo [6] [h] | total protein half-life in vivo [7] [h] | total protein half-life in vivo [8] [h] | total protein half-life in vivo [9] [h] | total protein half-life in vivo [10] [h] | total protein half-life in vivo [11] [h] | total protein half-life in vivo [12] [h]
1 | MNEQNLKHVIALLLEDAKRLQQIEPNAGTEARILLAKQALKTCGAQAPGRTEFMNFMANTLTPLPCNGEKVSRVYHDTMVKALRIELDGLRRKIVMNEIVTN | 4.2 | 4.79 | 4.61 |  |  |  |  |  |  |  |  | 
2 | MNEQYSALRSNVSMLGKVLGETIKDALGEHILERVETIRKLSKSSRAGNDANRQELLTTLQNLSNDELLPVARAFSQFLNLANTAEQYHSISPKGEAASNPEVIARTLRKLKNQPELSEDTIKKAVESLSLELVLTAHPTEITRRTLIHKMVEVNACLKQLDNKDIADYEHNQLMRRLRQLIAQSWHTDEIRKLRPSPVDEAKWGFAVVENSLWQGVPNYLRELNEQLEENLGYKLPVEFVPVRFTSWMGGDRDGNPNVTADITRHVLLLSRWKATDLFLKDIQVLVSELSMVEATPELLALVGEEGAAEPYRYLMKNLRSRLMATQAWLEARLKGEELPKPEGLLTQNEELWEPLYACYQSLQACGMGIIANGDLLDTLRRVKCFGVPLVRIDIRQESTRHTEALGELTRYLGIGDYESWSEADKQAFLIRELNSKRPLLPRNWQPSAETREVLDTCQVIAEAPQGSIAAYVISMAKTPSDVLAVHLLLKEAGIGFAMPVAPLFETLDDLNNANDVMTQLLNIDWYRGLIQGKQMVMIGYSDSAKDAGVMAASWAQYQAQDALIKTCEKAGIELTLFHGRGGSIGRGGAPAHAALLSQPPGSLKGGLRVTEQGEMIRFKYGLPEITVSSLSLYTGAILEANLLPPPEPKESWRRIMDELSVISCDVYRGYVRENKDFVPYFRSATPEQELGKLPLGSRPAKRRPTGGVESLRAIPWIFAWTQNRLMLPAWLGAGTALQKVVEDGKQSELEAMCRDWPFFSTRLGMLEMVFAKADLWLAEYYDQRLVDKALWPLGKELRNLQEEDIKVVLAIANDSHLMADLPWIAESIQLRNIYTDPLNVLQAELLHRSRQAEKEGQEPDPRVEQALMVTIAGIAAGMRNTG | 5.93 ± 0.19 | 5.73 ± 0.32 | 5.22 ± 0.11 | 5.54 ± 0.18 | 5.364 ± 0.041 | 5.04 ± 0.057 | 2.97 ± 0.16 | 5.78 ± 0.22 | 10.98 ± 0.089 | 10.6 ± 0.79 | 5.97 ± 0.078 | 11.8 ± 0.8
3 | MNFEGKIALVTGASRGIGRAIAETLAARGAKVIGTATSENGAQAISDYLGANGKGLMLNVTDPASIESVLEKIRAEFGEVDILVNNAGITRDNLLMRMKDEEWNDIIETNLSSVFRLSKAVMRAMMKKRHGRIITIGSVVGTMGNGGQANYAAAKAGLIGFSKSLAREVASRGITVNVVAPGFIETDMTRALSDDQRAGILAQVPAGRLGGAQEIANAVAFLASDEAAYITGETLHVNGGMYMV [P0AEK2] | 5.03 ± 0.11 | 4.85 ± 0.11 | 4.81 ± 0.28 | 4.8 ± 0.2 | 5.27 ± 0.39 | 4.814 ± 0.012 | 2.98 ± 0.11 | 5.91 ± 0.17 | 12.8 ± 3.6 | 8.546 ± 0.024 | 6.06 ± 0.38 | 11.3 ± 0.73
4 | MNFHHLAYWQDKALSLAIENRLFINGEYTAAAENETFETVDPVTQAPLAKIARGKSVDIDRAMSAARGVFERGDWSLSSPAKRKAVLNKLADLMEAHAEELALLETLDTGKPIRHSLRDDIPGAARAIRWYAEAIDKVYGEVATTSSHELAMIVREPVGVIAAIVPWNFPLLLTCWKLGPALAAGNSVILKPSEKSPLSAIRLAGLAKEAGLPDGVLNVVTGFGHEAGQALSRHNDIDAIAFTGSTRTGKQLLKDAGDSNMKRVWLEAGGKSANIVFADCPDLQQAASATAAGIFYNQGQVCIAGTRLLLEESIADEFLALLKQQAQNWQPGHPLDPATTMGTLIDCAHADSVHSFIREGESKGQLLLDGRNAGLAAAIGPTIFVDVDPNASLSREEIFGPVLVVTRFTSEEQALQLANDSQYGLGAAVWTRDLSRAHRMSRRLKAGSVFVNNYNDGDMTVPFGGYKQSGNGRDKSLHALEKFTELKTIWISLEA | 3.96 ± 0.66 | > 8 | 1.43 ± 0.29 | 1.03 ± 0.13 |  | 1.11 ± 0.082 | 2.68 ± 0.027 | 2.8 ± 0.14 | 3.22 ± 0.67 | 1.48 | 4.1373 ± 0.0017 | 6.22 ± 0.066
5 | MNFRRLKYFVKIVDIGSLTQAAEVLHIAQPALSQQVATLEGELNQQLLIRTKRGVTPTDAGKILYTHARAILRQCEQAQLAVHNVGQALSGQVSIGFAPGTAASSITMPLLQAVRAEFPEIVIYLHENSGAVLNEKLINHQLDMAVIYEHSPVAGVSSQALLKEDLFLVGTQDCPGQSVDVNAIAQMNLFLPSDYSAIRLRVDEAFSLRRLTAKVIGEIESIATLTAAIASGMGVAVLPESAARSLCGAVNGWMSRITTPSMSLSLSLNLPARANLSPQAQAVKELLMSVISSPVMEKRQWQLVS | 6.26 ± 0.89 | 2.6 ± 0.032 | 0.978 ± 0.3 | 0.485 ± 0.11 | 0.469 | 1.83 ± 0.15 |  |  |  | 1.31 ± 0.14 |  | 
6 | MNHAPHLYFAWQQLVEKSQLMLRLATEEQWDELIASEMAYVNAVQEIAHLTEEVDPSTTMQEQLRPMLRLILDNESKVKQLLQIRMDELAKLVGQSSVQKSVLSAYGDQGGFVLAPQDNLF [P0ABY2] |  |  |  |  |  |  | 0.191 |  |  |  |  | 
7 | MNHSETITIECTINGMPFQLHAAPGTPLSELLREQGLLSVKQGCCVGECGACTVLVDGTAIDSCLYLAAWAEGKEIRTLEGEAKGGKLSHVQQAYAKSGAVQCGFCTPGLIMATTAMLAKPREKPLTITEIRRGLAGNLCRCTGYQMIVNTVLDCEKTK | 4.15 |  |  | 1.29 |  | 1.2 | 1.46 ± 0.069 | 2.29 ± 0.2 | 3.5 ± 0.34 |  |  | 3.76
8 | MNIDTREITLEPADNARLLSLCGPFDDNIKQLERRLGIEINRRDNHFKLTGRPICVTAAADILRSLYVDTAPMRGQIQDIEPEQIHLAIKEARVLEQSAESVPEYGKAVNIKTKRGVIKPRTPNQAQYIANILDHDITFGVGPAGTGKTYLAVAAAVDALERQEIRRILLTRPAVEAGEKLGFLPGDLSQKVDPYLRPLYDALFEMLGFEKVEKLIERNVIEVAPLAYMRGRTLNDAFIILDESQNTTIEQMKMFLTRIGFNSKAVITGDVTQIDLPRNTKSGLRHAIEVLADVEEISFNFFHSEDVVRHPVVARIVNAYEAWEEAEQKRKAALAAERKREEQEQK [P0A9K3] | 5.2 ± 0.69 | 4.25 ± 0.14 | 3.15 ± 0.17 | 2.95 ± 0.066 | 4.1 ± 0.2 | 3.167 ± 0.017 | 2.77 ± 0.3 | 4.809 ± 0.025 | 7.67 ± 0.34 | 4.373 ± 0.043 | 4.37 ± 0.17 | 7.78 ± 0.12
9 | MNIEELKKQAETEIADFIAQKIAELNKNTGKEVSEIRFTAREKMTGLESYDVKIKIM [P0AC92] | > 8 | 5.88 ± 0.43 | 5.99 ± 1.4 | 6.62 ± 0.26 | 6.72 ± 0.85 | 5.86 ± 0.59 | 2.98 ± 0.29 | 4.55 ± 2.8 | 10 ± 1.4 |  | 6.14 | 
10 | MNIELRHLRYFVAVAEELHFGRAAARLNISQPPLSQQIQALEQQIGARLLARTNRSVLLTAAGKQFLADSRQILSMVDDAAARAERLHQGEAGELRIGFTSSAPFIRAVSDTLSLFRRDYPDVHLQTREMNTREQIAPLIEGTLDMGLLRNTALPESLEHAVIVHEPLMAMIPHDHPLANNPNVTLAELAKEPFVFFDPHVGTGLYDDILGLMRRYHLTPVITQEVGEAMTIIGLVSAGLGVSILPASFKRVQLNEMRWVPIAEEDAVSEMWLVWPKHHEQSPAARNFRIHLLNALR | 6 ± 0.22 | 5.84 ± 0.3 | 6.8 ± 0.96 | 6.28 ± 0.17 | 5.5 ± 0.23 | 5.65 ± 0.16 |  | 6.3 ± 1.5 | 11.97 ± 0.024 | 12.5 ± 1.8 | 5.12 ± 0.62 | 13.3 ± 0.86
11 | MNIFEQTPPNRRRYGLAAFIGLIAGVVSAFVKWGAEVPLPPRSPVDMFNAACGPESLIRAAGQIDCSRNFLNPPYIFLRDWLGLTDPNAAVYTFAGHVFNWVGVTHIIFSIVFAVGYCVVAEVFPKIKLWQGLLAGALAQLFVHMISFPLMGLTPPLFDLPWYENVSEIFGHLVWFWSIEIIRRDLRNRITHEPDPEIPLGSNR [P0AAA1] | 6.706 ± 0.025 |  | 5.96 ± 0.12 |  | 6.72 ± 0.32 | 6.16 ± 0.29 | 3.21 ± 0.28 | 6.707 ± 0.0077 | 14.5 ± 0.3 |  | 6.57 ± 1.5 | 13.7 ± 1.1
12 | MNIFTEAAKLEEQNCPFAMAQIVDSRGSTPRHSAQMLVRADGSIVGTIGGGMVERKVIEESLQALQERKPRLFHGRMARNGADAVGSDCGGAMSVFISVHGMRPRLVLIGAGHVNRAIAQSAALLGFDIAVADIYRESLNPELFPPSTTLLHAESFGAAVEALDIRPDNFVLIATNNQDREALDKLIEQPIAWLGLLASRRKVQLFLRQLREKGVAEEHIARLHAPVGYNIGAETPQEIAISVLAEILQVKNNAPGGLMMKPSHPSGHQLVVIRGAGDIASGVALRLYHAGFKVIMLEVEKPTVIRCTVAFAQAVFDGEMTVEGVTARLATSSAEAMKLTERGFIPVMVDPACSLLDELKPLCVVDAILAKQNLGTRADMAPVTIALGPGFTAGKDCHAVIETNRGHWLGQVIYSGCAQENTGVPGNIMGHTTRRVIRAPAAGIMRSNVKLGDLVKEGDVIAWIGEHEIKAPLTGMVRGLLNDGLAVVGGFKIGDIDPRGETADFTSVSDKARAIGGGVLEALMMLMHQGVKATKEVLEVA | 5.14 ± 0.82 | 1.65 ± 0.36 |  |  |  |  |  |  |  | 1.22 |  | 
